Reference: paper PMC6750980

Target: Hepatitis C virus p7 protein from genotype 5a (EUH1480 strain) (Hepatitis C virus genotype 5a (EUH1480 strain))
Test: SEC

Substance: Hepatitis C virus p7 protein from genotype 5a (EUH1480 strain) (natural protein)
- stoichiometry N: 6
